Experimental data: the supplement of paper PMC10724198

How the values were obtained:
Saccharomyces cerevisiae [1] = assay: protein stability index of tFT-peptide fusion in wild type (PSI (0-1 scale)); higher = more stable (slower turnover); details: genetic background: wild type
Saccharomyces cerevisiae [2] = assay: protein stability index of tFT-peptide fusion in deletion strain of DAS1 (PSI (0-1 scale)); higher = more stable (slower turnover)
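For protein stability index of tFT-peptide fusion in deletion strain of DAS1 in this document: PSI is a weighted mean of each variant's read distribution over the sorted stability bins, computed only for variants having over 10 reads in total.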
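For protein stability index of tFT-peptide fusion in wild type in this document: PSI derived as read-weighted mean over the 8 sorting bins, only variants exceeding 10 total reads kept, mCherry placed adjacent to the peptide and sfGFP distal.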

| Sequence | protein stability index (Saccharomyces cerevisiae [1]) | protein stability index (Saccharomyces cerevisiae [2]) |
| --- | --- | --- |
| KKMKKGQKQKIN | 0.0965 | 0.758 |
| KKHKKGQKQKIC | 0.0636 | 0.61 |
| HRGAVGGWRLVG | 0.172 | 0.665 |
| KKHKKGKKQKIN | 0.0795 | 0.579 |
| LKILRQKMNHQP | 0.373 | 0.677 |
| LVVYLSCLACIN | 0.0182 | 0.0537 |
| LVVYLSCVACINN | 0.0233 | 0.037 |
| RLIQPLNVQFLN | 0.0919 | 0.575 |
| LKITRQKMNHQN | 0.229 | 0.674 |
| LVVYLSTVACIN | 0.0656 | 0.161 |
| CLIQPLPVQFLN | 0.103 | 0.548 |
| VRGAVGGWHLVG | 0.286 | 0.671 |
| VREAVGGWRLVG | 0.143 | 0.676 |
| CTICGYKFRTNN | 0.27 | 0.67 |
| RLTQPLPVQFLN | 0.0562 | 0.857 |
| ARWRVGLWRGASD | 0.688 | 0.686 |
| LKILRQKQNHQN | 0.302 | 0.64 |
| VRGAVGGWRLVGV | 0.649 | 0.659 |
| PDKRNHLIKLLC | 0.0722 | 0.577 |
| PDKANHLIKLLN | 0.183 | 0.594 |
| AFWRVGLWRGAS | 0.496 | 0.704 |
| CTSCGYKIRTNN | 0.261 | 0.704 |
| VWGAVGGWRLVG | 0.134 | 0.692 |
| ARWRVGLNRGAS | 0.68 | 0.668 |
| PSLAASQWRVVG | 0.184 | 0.668 |

| Sequence | protein stability index (Saccharomyces cerevisiae [1]) | protein stability index (Saccharomyces cerevisiae [2]) |
| --- | --- | --- |
| KKHKKGQKQCIN | 0.26 | 0.585 |
| VRGAVGRWRLVG | 0.159 | 0.669 |
| ARWRVGLWRGKS | 0.653 | 0.679 |
| FSARWTFRYWVN | 0.0651 | 0.553 |
| PSLAASFWRVYG | 0.174 | 0.691 |
| VKGAVGGWRLVG | 0.149 | 0.691 |
| LKILIQKMNHQN | 0.217 | 0.695 |
| KKHKKGQKQKINS | 0.126 | 0.668 |
| LVILRQKMNHQN | 0.135 | 0.675 |
| RLIQPLPVQFLNF | 0.462 | 0.659 |
| LKINRQKMNHQN | 0.209 | 0.682 |
| LVVYLSCVCCIN | 0.461 | 0.415 |
| LKILRQKMTHQN | 0.273 | 0.688 |
| ARWRVGLWRGSS | 0.516 | 0.686 |
| KKHKKGQSQKIN | 0.204 | 0.676 |
| LVVYLSCVVCIN | 0.0309 | 0.0986 |
| VRGAVGGDRLVG | 0.609 | 0.68 |
| CTQCGYKFRTNN | 0.25 | 0.697 |
| LKILRQKMNNQN | 0.267 | 0.707 |
| FSMRWTFRYWWN | 0.271 | 0.497 |
| CTSCMYKFRTNN | 0.207 | 0.689 |
| LKILRQKMNHQNW | 0.659 | 0.67 |
| VRGAVGGWRLVGP | 0.664 | 0.671 |
| ARWRVGLWRGASQ | 0.661 | 0.646 |
